Consider 7 molecules from patent publication US20130005646A1 (Novo Nordisk, published 2013).

Starred links: 1 amine or outer side, 2 acyl side, 3 side chain; linkers in the order of their positions; H or OH if unused. Positions of bridges follow the written chain, without caps; N, C: chain ends. *: point of attachment. X1 = (S)‑4‑Carboxy‑4‑(19-carboxynonadecanoylamino)butyryl, O=C(O)CCCCCCCCCCCCCCCCCCC(=O)N[C@@H](CCC(=O)*)C(=O)O; C20 diacid = O=C(O)CCCCCCCCCCCCCCCCCCC(=O)*; γGlu = O=C(O)[C@H](CCC(=O)[*:2])N[*:1]

Experiment [1] addresses T1, human amylin 3(a) receptor (human calcitonin receptor + RAMP-3) (human, UniProt P30988 25-474; O60896 24-148).
T1 sequence (looked up) 1: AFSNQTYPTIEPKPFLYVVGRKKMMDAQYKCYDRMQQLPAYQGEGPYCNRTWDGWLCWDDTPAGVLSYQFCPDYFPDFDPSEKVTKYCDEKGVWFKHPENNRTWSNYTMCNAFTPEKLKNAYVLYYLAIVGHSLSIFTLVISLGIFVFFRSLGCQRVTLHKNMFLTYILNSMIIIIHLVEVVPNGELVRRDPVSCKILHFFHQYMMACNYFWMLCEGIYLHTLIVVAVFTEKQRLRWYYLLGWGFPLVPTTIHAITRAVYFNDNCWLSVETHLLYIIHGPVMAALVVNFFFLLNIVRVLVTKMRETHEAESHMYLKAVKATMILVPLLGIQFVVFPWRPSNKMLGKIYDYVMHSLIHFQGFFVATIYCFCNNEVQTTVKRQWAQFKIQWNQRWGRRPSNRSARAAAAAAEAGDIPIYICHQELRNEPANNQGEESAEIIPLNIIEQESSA
T1 sequence (looked up) 2: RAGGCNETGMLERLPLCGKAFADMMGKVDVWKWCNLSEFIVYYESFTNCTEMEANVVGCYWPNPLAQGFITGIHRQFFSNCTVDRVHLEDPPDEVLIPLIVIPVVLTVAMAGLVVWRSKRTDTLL
In words: cell-based or functional assay.

Experiment [2] addresses T2, human calcitonin (a) receptor (human, UniProt P30988 25-474).
T2 sequence (looked up): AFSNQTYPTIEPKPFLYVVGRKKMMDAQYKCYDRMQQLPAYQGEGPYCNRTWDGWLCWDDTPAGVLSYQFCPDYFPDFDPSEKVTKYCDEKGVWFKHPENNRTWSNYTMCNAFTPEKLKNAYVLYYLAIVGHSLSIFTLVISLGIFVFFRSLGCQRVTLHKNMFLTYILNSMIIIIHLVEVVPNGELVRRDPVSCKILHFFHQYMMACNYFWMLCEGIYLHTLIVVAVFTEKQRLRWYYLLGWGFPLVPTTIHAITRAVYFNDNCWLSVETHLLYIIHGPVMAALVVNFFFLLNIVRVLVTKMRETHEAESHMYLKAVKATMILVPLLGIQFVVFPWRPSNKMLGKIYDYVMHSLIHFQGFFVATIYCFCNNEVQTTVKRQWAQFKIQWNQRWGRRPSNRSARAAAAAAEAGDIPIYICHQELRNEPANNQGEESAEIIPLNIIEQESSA
In words: cell-based or functional assay.

B1: N-alpha-[(S)-4-Carboxy-4-(19-carboxynonadecanoylamino)butyryl]-[His1,Glu14,Pro37]-pramlintide (peptide)
peptide: {C20 diacid-γGlu}-HCNTATCATQRLAEFLVHSSNNFGPILPPTNVGSNTP-NH2
modifications: disulfide 2-7
SMILES: CC[C@H](C)[C@H](NC(=O)[C@@H]1CCCN1C(=O)CNC(=O)[C@H](Cc1ccccc1)NC(=O)[C@H](CC(N)=O)NC(=O)[C@H](CC(N)=O)NC(=O)[C@H](CO)NC(=O)[C@H](CO)NC(=O)[C@H](Cc1c[nH]cn1)NC(=O)[C@@H](NC(=O)[C@H](CC(C)C)NC(=O)[C@H](Cc1ccccc1)NC(=O)[C@H](CCC(=O)O)NC(=O)[C@H](C)NC(=O)[C@H](CC(C)C)NC(=O)[C@H](CCCNC(=N)N)NC(=O)[C@H](CCC(N)=O)NC(=O)[C@@H](NC(=O)[C@H](C)NC(=O)[C@@H]1CSSC[C@H](NC(=O)[C@H](Cc2c[nH]cn2)NC(=O)CC[C@H](NC(=O)CCCCCCCCCCCCCCCCCCC(=O)O)C(=O)O)C(=O)N[C@@H](CC(N)=O)C(=O)N[C@@H]([C@@H](C)O)C(=O)N[C@@H](C)C(=O)N[C@@H]([C@@H](C)O)C(=O)N1)[C@@H](C)O)C(C)C)C(=O)N[C@@H](CC(C)C)C(=O)N1CCC[C@H]1C(=O)N1CCC[C@H]1C(=O)N[C@H](C(=O)N[C@@H](CC(N)=O)C(=O)N[C@H](C(=O)NCC(=O)N[C@@H](CO)C(=O)N[C@@H](CC(N)=O)C(=O)N[C@H](C(=O)N1CCC[C@H]1C(N)=O)[C@@H](C)O)C(C)C)[C@@H](C)O
As for B1, in experiment [1], the “Amylin receptor human EC50” value is 84.5 pM. For the same molecule, the “CTa receptor human EC50” value in experiment [2] came out at 72.5 pM.

B2: N-alpha-[(S)-4-Carboxy-4-(19-carboxynonadecanoylamino)butyryl]-[Glu14,His17,Arg35]-pramlintide (peptide)
peptide: {C20 diacid-γGlu}-KCNTATCATQRLAEFLHHSSNNFGPILPPTNVGSRTY-NH2
modifications: disulfide 2-7
SMILES: CC[C@H](C)[C@H](NC(=O)[C@@H]1CCCN1C(=O)CNC(=O)[C@H](Cc1ccccc1)NC(=O)[C@H](CC(N)=O)NC(=O)[C@H](CC(N)=O)NC(=O)[C@H](CO)NC(=O)[C@H](CO)NC(=O)[C@H](Cc1c[nH]cn1)NC(=O)[C@H](Cc1c[nH]cn1)NC(=O)[C@H](CC(C)C)NC(=O)[C@H](Cc1ccccc1)NC(=O)[C@H](CCC(=O)O)NC(=O)[C@H](C)NC(=O)[C@H](CC(C)C)NC(=O)[C@H](CCCNC(=N)N)NC(=O)[C@H](CCC(N)=O)NC(=O)[C@@H](NC(=O)[C@H](C)NC(=O)[C@@H]1CSSC[C@H](NC(=O)[C@H](CCCCN)NC(=O)CC[C@H](NC(=O)CCCCCCCCCCCCCCCCCCC(=O)O)C(=O)O)C(=O)N[C@@H](CC(N)=O)C(=O)N[C@@H]([C@@H](C)O)C(=O)N[C@@H](C)C(=O)N[C@@H]([C@@H](C)O)C(=O)N1)[C@@H](C)O)C(=O)N[C@@H](CC(C)C)C(=O)N1CCC[C@H]1C(=O)N1CCC[C@H]1C(=O)N[C@H](C(=O)N[C@@H](CC(N)=O)C(=O)N[C@H](C(=O)NCC(=O)N[C@@H](CO)C(=O)N[C@@H](CCCNC(=N)N)C(=O)N[C@H](C(=O)N[C@@H](Cc1ccc(O)cc1)C(N)=O)[C@@H](C)O)C(C)C)[C@@H](C)O
B2: the “Amylin receptor human EC50” value in experiment [1] was 98 pM. For the same molecule, in experiment [2], the “CTa receptor human EC50” value is 104 pM.

B3: N-alpha-[(S)-4-Carboxy-4-(19-carboxynonadecanoylamino)butyryl]-[Glu14,His17,His36]-pramlintide (peptide)
peptide: {C20 diacid-γGlu}-KCNTATCATQRLAEFLHHSSNNFGPILPPTNVGSNHY-NH2
modifications: disulfide 2-7; not fully specified; printed as N-alpha-[(S)-4-Carboxy-4-(19-carboxynonadecanoylamino)butyryl]-[Glu14,His17,His36]-pramlintide
Consider B3, for which the “Amylin receptor human EC50” value in experiment [1] is 382 pM. Also, the “CTa receptor human EC50” value in experiment [2] was determined as 112 pM.

B4: N-alpha-[(S)-4-Carboxy-4-(19-carboxynonadecanoylamino)butyryl]-[His1,Glu14,Ser21,Ser28,Ser29,His35]-pramlintide (peptide)
peptide: {C20 diacid-γGlu}-HCNTATCATQRLAEFLVHSSSNFGPILSSTNVGSHTY-NH2
modifications: disulfide 2-7
SMILES: CC[C@H](C)[C@H](NC(=O)[C@@H]1CCCN1C(=O)CNC(=O)[C@H](Cc1ccccc1)NC(=O)[C@H](CC(N)=O)NC(=O)[C@H](CO)NC(=O)[C@H](CO)NC(=O)[C@H](CO)NC(=O)[C@H](Cc1c[nH]cn1)NC(=O)[C@@H](NC(=O)[C@H](CC(C)C)NC(=O)[C@H](Cc1ccccc1)NC(=O)[C@H](CCC(=O)O)NC(=O)[C@H](C)NC(=O)[C@H](CC(C)C)NC(=O)[C@H](CCCNC(=N)N)NC(=O)[C@H](CCC(N)=O)NC(=O)[C@@H](NC(=O)[C@H](C)NC(=O)[C@@H]1CSSC[C@H](NC(=O)[C@H](Cc2c[nH]cn2)NC(=O)CC[C@H](NC(=O)CCCCCCCCCCCCCCCCCCC(=O)O)C(=O)O)C(=O)N[C@@H](CC(N)=O)C(=O)N[C@@H]([C@@H](C)O)C(=O)N[C@@H](C)C(=O)N[C@@H]([C@@H](C)O)C(=O)N1)[C@@H](C)O)C(C)C)C(=O)N[C@@H](CC(C)C)C(=O)N[C@@H](CO)C(=O)N[C@@H](CO)C(=O)N[C@H](C(=O)N[C@@H](CC(N)=O)C(=O)N[C@H](C(=O)NCC(=O)N[C@@H](CO)C(=O)N[C@@H](Cc1c[nH]cn1)C(=O)N[C@H](C(=O)N[C@@H](Cc1ccc(O)cc1)C(N)=O)[C@@H](C)O)C(C)C)[C@@H](C)O
As for B4, the “Amylin receptor human EC50” value in experiment [1] came to 921 pM. The “CTa receptor human EC50” value in experiment [2] worked out at 349 pM.

B5: N-alpha-[(S)-4-Carboxy-4-(19-carboxynonadecanoylamino)butyryl]-[His1,Glu14,Arg17,Ser21,Ser28,Ser29,His35]-pramlintide (peptide)
peptide: X1-HCNTATCATQRLAEFLRHSSSNFGPILSSTNVGSHTY-NH2
modifications: disulfide 2-7
SMILES: CC[C@H](C)[C@H](NC(=O)[C@@H]1CCCN1C(=O)CNC(=O)[C@H](Cc1ccccc1)NC(=O)[C@H](CC(N)=O)NC(=O)[C@H](CO)NC(=O)[C@H](CO)NC(=O)[C@H](CO)NC(=O)[C@H](Cc1c[nH]cn1)NC(=O)[C@H](CCCNC(=N)N)NC(=O)[C@H](CC(C)C)NC(=O)[C@H](Cc1ccccc1)NC(=O)[C@H](CCC(=O)O)NC(=O)[C@H](C)NC(=O)[C@H](CC(C)C)NC(=O)[C@H](CCCNC(=N)N)NC(=O)[C@H](CCC(N)=O)NC(=O)[C@@H](NC(=O)[C@H](C)NC(=O)[C@@H]1CSSC[C@H](NC(=O)[C@H](Cc2c[nH]cn2)NC(=O)CC[C@H](NC(=O)CCCCCCCCCCCCCCCCCCC(=O)O)C(=O)O)C(=O)N[C@@H](CC(N)=O)C(=O)N[C@@H]([C@@H](C)O)C(=O)N[C@@H](C)C(=O)N[C@@H]([C@@H](C)O)C(=O)N1)[C@@H](C)O)C(=O)N[C@@H](CC(C)C)C(=O)N[C@@H](CO)C(=O)N[C@@H](CO)C(=O)N[C@H](C(=O)N[C@@H](CC(N)=O)C(=O)N[C@H](C(=O)NCC(=O)N[C@@H](CO)C(=O)N[C@@H](Cc1c[nH]cn1)C(=O)N[C@H](C(=O)N[C@@H](Cc1ccc(O)cc1)C(N)=O)[C@@H](C)O)C(C)C)[C@@H](C)O
B5: the “Amylin receptor human EC50” value in experiment [1] was determined as 394 pM. In experiment [2], the “CTa receptor human EC50” value came out at 570 pM.

B6: N-alpha-[(S)-4-Carboxy-4-(19-carboxynonadecanoylamino)butyryl]-[Glu14,His17,His34]-pramlintide (peptide)
peptide: {C20 diacid-γGlu}-KCNTATCATQRLAEFLHHSSNNFGPILPPTNVGHNTY-NH2
modifications: disulfide 2-7
SMILES: CC[C@H](C)[C@H](NC(=O)[C@@H]1CCCN1C(=O)CNC(=O)[C@H](Cc1ccccc1)NC(=O)[C@H](CC(N)=O)NC(=O)[C@H](CC(N)=O)NC(=O)[C@H](CO)NC(=O)[C@H](CO)NC(=O)[C@H](Cc1c[nH]cn1)NC(=O)[C@H](Cc1c[nH]cn1)NC(=O)[C@H](CC(C)C)NC(=O)[C@H](Cc1ccccc1)NC(=O)[C@H](CCC(=O)O)NC(=O)[C@H](C)NC(=O)[C@H](CC(C)C)NC(=O)[C@H](CCCNC(=N)N)NC(=O)[C@H](CCC(N)=O)NC(=O)[C@@H](NC(=O)[C@H](C)NC(=O)[C@@H]1CSSC[C@H](NC(=O)[C@H](CCCCN)NC(=O)CC[C@H](NC(=O)CCCCCCCCCCCCCCCCCCC(=O)O)C(=O)O)C(=O)N[C@@H](CC(N)=O)C(=O)N[C@@H]([C@@H](C)O)C(=O)N[C@@H](C)C(=O)N[C@@H]([C@@H](C)O)C(=O)N1)[C@@H](C)O)C(=O)N[C@@H](CC(C)C)C(=O)N1CCC[C@H]1C(=O)N1CCC[C@H]1C(=O)N[C@H](C(=O)N[C@@H](CC(N)=O)C(=O)N[C@H](C(=O)NCC(=O)N[C@@H](Cc1c[nH]cn1)C(=O)N[C@@H](CC(N)=O)C(=O)N[C@H](C(=O)N[C@@H](Cc1ccc(O)cc1)C(N)=O)[C@@H](C)O)C(C)C)[C@@H](C)O
Turning to B6, in experiment [1], the “Amylin receptor human EC50” value was 129 pM. The “CTa receptor human EC50” value in experiment [2] amounted to 114 pM.

B7: N-alpha-[(S)-4-Carboxy-4-(19-carboxynonadecanoylamino)butyryl]-[Glu14,His17,Lys35]-pramlintide (peptide)
peptide: {C20 diacid-γGlu}-KCNTATCATQRLAEFLHHSSNNFGPILPPTNVGSKTY-NH2
modifications: disulfide 2-7; not fully specified; printed as N-alpha-[(S)-4-Carboxy-4-(19-carboxynonadecanoylamino)butyryl]-[Glu14,His17,Lys35]-pramlintide
For the molecule B7, the “Amylin receptor human EC50” value in experiment [1] came out at 134 pM. Besides, the “CTa receptor human EC50” value in experiment [2] came to 130 pM.
